Data taken from US20060002901A1, “Composition containing eosinophil cationic protein” (priority 2002, published 2006).

B1: RNaseA: RNaseA, added as comparison protein alongside ECP (protein, UniProt P61823 27-150, looked up)
Ribonuclease pancreatic: KETAAAKFERQHMDSSTSAASSSNYCNQMMKSRNLTKDRCKPVNTFVHESLADVQAVCSQKNVACKNGQTNCYQSYSTMSITDCRETGSSKYPNCAYKTTQANKHIIVACEGNPYVPVHFDASV
B2: eosinophil cationic protein (protein, UniProt P12724 28-160, looked up)
Eosinophil cationic protein: RPPQFTRAQWFAIQHISLNPPRCTIAMRAINNYRWRCKNQNTFLRTTFANVVNVCGNQSIRCPHNRTLNNCHRSRFRVPLLHCDLINPGAQNISNCTYADRPGRRFYVVACDNRDPRDSPRYPVVPVHLDTTI

Assays:
BALB/c 3T3 cells [1] = assay: Proliferation of BALB/c 3T3 cells in low-serum medium, phase-contrast microscopy; type: cell-based, mouse; details: 0.5% FBS, 1 μM ECP, 60 pM bFGF, 48 hours, FIG. 4
Experimental: In DMEM culture medium containing 10% FBS in a 24-well culture plate, BALB/c 3T3 cells were inoculated at a concentration of 2×10^4 cells/well, and cultured. […] After 24 hours, 1 μM ECP or RNaseA, and 60 pM bFGF were added to the culture solution in combination, respectively, then the culture was continued for an additional 48 hours.

BALB/c 3T3 A31-K cells = assay: Proliferation of BALB/c 3T3 cells, number of living cells after 48 hours; type: cell-based, mouse; details: 10% FBS, FIG. 2
Experimental: In DMEM culture medium containing 10% FBS in a 96-well culture plate, BALB/c 3T3 A31-K cells were inoculated at a concentration of 1000 cells/well, and after 24 hours, ECP or RNaseA was added to the culture solution to a final concentration of 1 μM, respectively. After the culture was continued for 48 hours, the number of living cells was counted.

MC3T3-E1 cells = assay: Alkali phosphatase (ALP) activity in osteoblast-like cells; type: cell-based, rat; details: ECP at 1 ng/ml vs BMP-4 100 ng/ml, 72 hours, FIG. 12
Experimental: MC3T3-E1 cells were inoculated into α-MEM medium in a 24-well culture plate, and ECP (at a final concentration of 1 ng, 10 ng, 100 ng or 1 μg per ml), BMP-4 (100 ng/ml) or bFGF (100 ng/ml) was added. After 72 hours, the cells were washed with 10 mM Tris-HCl (pH 7.2) solution twice, and lysed in 10 mM Tris-HCl (pH 7.2) solution containing 0.1% Triton-X100. Then, the cell lysis solution was subjected to sonication treatment for 15 seconds to homoginize the cells. Then, 100 μl of the homogenized cell solution and 0.1 M aminomethyl propanol were mixed with 100 μl of a substrate solution (4 mg/ml p-nitorophenyl phosphate and 2 mM MgCl2) adjusted at pH 10.5, and they were reacted with each other at 37° C. for 30 minutes. The reaction was terminated with 0.5 M NaOH, and the absorbance at 410 nm was measured. The obtained value was divided by the total amount of proteins in the homogenized cell solution, whereby the specific activity was calculated.

[2] = system: myocardial cell derived from newborn rat; assay: Number of heartbeats of myocardial cells; type: cell-based; details: ECP 10 ng, 100 ng or 1 μg per ml; 24 hours; FIG. 9
Experimental: Myocardial cells isolated from a newborn rat were dedifferentiated in the same manner as in Example 7 and ECP was added to the culture solution (10 ng, 100 ng or 1 μg per ml). Twenty-four hours after the addition, the number of heartbeats was counted.
Further, the effects of a ROCK inhibitor (Y27632) on the effects of ECP on increase in the number of heartbeats of myocardial cell were studied. The adding amounts of Y27632 were set at 0, 5, 10 and 15 μM, and the ECP concentration was set at 100 ng/ml.

[3] = system: myocardial cell derived from newborn rat; assay: Immunofluorescence staining of dedifferentiated myocardial cells; type: cell-based; details: ECP 100 ng/ml; 24 hours; FIG. 8
Experimental: The cultured myocardial cells were cultured in SFM (2 μM BrDU, 100 units/ml penicillin, 100 μg/ml streptomycin) for 48 hours, whereby the cells were dedifferentiated. Then, the culture medium was changed, and ECP was added to a final concentration of 100 ng/ml. After an additional 24 hours, the cells were washed three times with 1× PBS for 10 minutes each, then dipped in 4% paraformaldehyde at room temperature for 30 minutes, whereby the cells were fixed. Then, the cells were dipped in PBS containing 0.25% Triton-X100 at room temperature for 15 minutes, and reacted in a blocking buffer containing BSA, to which anti-ENH1 antibody had been added at a ratio of 1:40, or anti-α-actinin antibody had been added at a ratio of 1:100, at 4° C. overnight. Then, a 20-minute washing with PBS containing 0.03% Triton-X100 was performed and the washing was repeated three times. To the blocking buffer, Cy3-labeled anti-mouse antibody and Cy2-labeled anti-rabbit IgG antibody were added (1:250 dilution in blocking buffer), respectively, and reaction was performed at 4° C. for 4 hours. After the reaction, a 20-minute washing with PBS containing 0.03% Triton-X100 was performed again and the washing was repeated three times. Then, water content was removed and 90% glycerol was added.

BALB/c 3T3 cells [4] = assay: Cytoskeletal molecule (stress fiber) formation in low-serum medium, confocal immunostaining; type: cell-based, mouse; details: 0.5% FBS, 1 μM ECP, 6 hours, FIG. 5
Experimental: A round cover glass with a diameter of 15 mm which had been sterilized in advance was placed in a 24-well culture plate, 1× phosphate buffer (PBS) containing 0.1% gelatin was added to each well so that the cover glass was sufficiently dipped in the solution. Then, the plate was left at room temperature for 30 minutes, whereby the cover glass was coated with gelatin. Then, each well was filled with DMEM culture medium containing 10% FBS, and BALB/c 3T3 cells were inoculated at a concentration of 2×10^4 cells/well and cultured. […] After an additional 24 hours, 1 μM ECP or RNaseA was added to the culture solution, respectively. After 6 hours, the cover glass on which BALB/c 3T3 cells were grown, was taken out from the well, washed 2 to 3 times with 1× PBS, then dipped in 4% formaldehyde (Wako Pure Chemical Industries, Ltd.) at room temperature for 10 minutes, whereby the cells were fixed. Then, the cover glass was washed 2 to 3 times with 1× PBS, dipped in 1× PBS containing 0.1% Trton-X100 for 10 minutes, whereby the cell membranes were lysed. Then, the cover glass was washed 2 to 3 times with 1× PBS, dipped in 0.5% BSA/PBS and left at room temperature for 30 minutes, whereby a nonspecific adsorption region was blocked with BSA in this operation. […]

PC12 cells = assay: Survival of nerve like PC12 cells in serum-free medium, Cell Titer-Glo; type: cell-based; details: serum-free DMEM, 72 hours, ECP 10 and 1000 ng/ml, FIG. 11
Experimental: PC12 cells were cultured overnight in a 96-well culture plate at 1×10^4 cells/well/100 μl. As the culture medium, DMEM culture medium containing 10% FBS, penicillin, and streptomycin was used. Then, washing was performed once with 150 μl of DMEM, and the medium was changed to DMEM culture medium containing 100 μl of ECP, penicillin, and streptomycin. After cells were cultured for 72 hours, the number of living cells was counted using Cell Titer-GloTM Luminescent Cell Viability Assay (No. G7570; Promega).

BALB/c 3T3 cells [5] = assay: Time-course proliferation of BALB/c 3T3 cells, living cells counted every 24 hours; type: cell-based, mouse; details: 10% FBS, 4 days, medium changed on day 2, FIG. 3
Experimental: In DMEM culture medium containing 10% FBS in a 96-well culture plate, BALB/c 3T3 cells were inoculated at a concentration of 1000 cells/well. After the cells were cultured for 24 hours, 1 μM ECP or 1 μM RNaseA was added to the culture solution to a final concentration of […], respectively. The culture was continued for 4 days, and the number of living cells was counted for every 24 hours. Incidentally, the culture medium was changed on day 2 of the culture.

[6] = system: mouse fibroblast cell line (BALB/c 3T3); assay: Proliferation of cell lines derived from normal tissue, 10% FBS, MTT; type: cell-based; details: ECP 0 to 10 μM, 48 hours, FIG. 1
Experimental: (§1) The effects of ECP on the proliferation of a mouse fibroblast cell line (BALB/c 3T3), aortic smooth muscle cell line (A10), mouse mammary epithelial cell line (HC-11) and human umbilical vessel endothelial cell line (HUVEC) were analyzed in the presence of 10% FBS. First, in DMEM culture medium containing 10% FBS in a 96-well culture plate, each cell line was inoculated at a concentration of 500 cells/well. Then, the cells were cultured for 24 hours in an incubator in which CO2 was maintained at 5%. Then, the respective concentrations of ECP and RNaseA (0 to 10 μM) were added, and the culture was continued for 48 hours in the same incubator. Then, 3-(4,5-dimethylthiazol-2-yl)-diphenyl-tetrazolium bromide (MTT) was added, and the proliferation rate of each cell line was obtained.

[7] = system: human umbilical vessel endothelial cell line (HUVEC); assay: as above; type: cell-based; details: ECP 0 to 10 μM, 48 hours, FIG. 1
Experimental: as §1

[8] = system: mouse mammary epithelial cell line (HC-11); assay: as above; type: cell-based; details: ECP 0 to 10 μM, 48 hours, FIG. 1
Experimental: as §1

[9] = system: aortic smooth muscle cell line (A10); assay: as above; type: cell-based; details: ECP 0 to 10 μM, 48 hours, FIG. 1
Experimental: as §1

Molecule | cell proliferation in low-serum medium (phase-contrast observation) (BALB/c 3T3 cells [1]) | cell proliferation (number of living cells) (BALB/c 3T3 A31-K cells) | ALP activity (specific activity, control = 100%) (MC3T3-E1 cells) | number of heartbeats of myocardial cell [2] | effect on cardiac hypertrophy in myocardial cell (immunofluorescence staining) [3] | formation of cytoskeletal molecules (stress fibers) (BALB/c 3T3 cells [4]) | survival of nerve cells (number of living cells) (PC12 cells) | time-course cell proliferation (number of living cells) (BALB/c 3T3 cells [5]) | cell proliferation (proliferation rate, MTT) [6] | cell proliferation (proliferation rate, MTT) [7] | cell proliferation (proliferation rate, MTT) [8] | cell proliferation (proliferation rate, MTT) [9]
bFGF: bFGF, added at 60 pM to low-serum culture | The cells were proliferated |  |  |  |  |  |  |  |  |  |  | 
B1 |  | could not be observed |  |  |  |  |  |  |  |  |  | 
B2 |  | significantly promoted the cell proliferation at any concentration | equal to or higher than that of BMP-4 | increased in a dose-dependent manner | an effect of ECP on cardiac hypertrophy in a myocardial cell was confirmed | increase in the formation of many cytoskeletal molecules (stress fibers) was confirmed | the survival of nerve cells was maintained | the proliferation of cells was significantly promoted | the cell proliferation was promoted | the proliferation was not promoted or the proliferation was inhibited | the proliferation was not promoted or the proliferation was inhibited | the proliferation was not promoted or the proliferation was inhibited
